Laboratory results published in PMC11557686.

B1: SmBiT-SEC24A [not stated] / LgBiT-SURF4 [not stated] (parent)
chain 1: MSQPGIPASGGAPASLQAQNGAALASGSPYTNGPVQNALLSSQESVSQGYNFQLPGSYPHPIPAKTLNPVSGQSNYGGSQGSGQTLNRPPVASNPVTPSLHSGPAPRMPLPASQNPATTPMPSSSFLPEANLPPPLNWQYNYPSTASQTNHCPRASSQPTVSGNTSLTTNHQYVSSGYPSLQNSFIKSGPSVPPLVNPPLPTTFQPGAPHGPPPAGGPPPVRALTPLTSSYRDVPQPLFNSAVNQEGITSNTNNGSMVVHSSYDEIEGGGLLATPQLTNKNPKMSRSVGYSYPSLPPGYQNTTPPGATGVPPSSLNYPSGPQAFTQTPLGANHLTTSMSGLSLQPEGLRVVNLLQERNMLPSTPLKPPVPNLHEDIQKLNCNPELFRCTLTSIPQTQALLNKAKLPLGLLLHPFKDLVQLPVVTSSTIVRCRSCRTYINPFVSFLDQRRWKCNLCYRVNDVPEEFLYNPLTRVYGEPHRRPEVQNATIEFMAPSEYMLRPPQPPVYLFVFDVSHNAVETGYLNSVCQSLLDNLDLLPGNTRTKIGFITFDSTIHFYGLQESLSQPQMLIVSDIEDVFIPMPENLLVNLNESKELVQDLLKTLPQMFTKTLETQSALGPALQAAFKLMSPTGGRMSVFQTQLPTLGVGALKPREEPNHRSSAKDIHMTPSTDFYKKLALDCSGQQVAVDLFLLSGQYSDLASLGCISRYSAGSVYYYPSYHHQHNPVQVQKLQKELQRYLTRKIGFEAVMRIRCTKGLSIHTFHGNFFVRSTDLLSLPNVNPDAGYAVQMSVEESLTDTQLVSFQSALLYTSSKGERRIRVHTLCLPVVSTLNDVFLGADVQAISGLLANMAVDRSMTASLSDARDALVNAVIDSLSAYRSSVLSNQQPGLMVPFSLRLFPLFVLALLKQKSFQTGTNARLDERIFAMCQVKNQPLVYLMLTTHPSLYRVDNLSDEGALNISDRTIPQPPILQLSVEKLSRDGAFLMDAGSVLMLWVGKNCTQNFLSQVLGVQNYASIPQPMTDLPELDTPESARIIAFISWLREQRPFFPILYVIRDESPMKANFLQNMIEDRTESALSYYEFLLHIQQQVNK
chain 2: MGQNDLMGTAEDFADQFLRVTKQYLPHVARLCLISTFLEDGIRMWFQWSEQRDYIDTTWNCGYLLASSFVFLNLLGQLTGCVLVLSRNFVQYACFGLFGIIALQTIAYSILWDLKFLMRNLALGGGLLLLLAESRSEGKSMFAGVPTMRESSPKQYMQLGGRVLLVLMFMTLLHFDASFFSIVQNIVGTALMILVAIGFKTKLAALTLVVWLFAINVYFNAFWTIPVYKPMHDFLKYDFFQTMSVIGGLLLVVALGPGGVSMDEKKKEW

Variants of: B1
Assay: NanoBiT
Conditions: with LgBiT-SURF4; six technical replicates in each of three independent biological replicates; parent: 1; read off a plot

Variant | ratio to parent
chain 1 R541A | 1
chain 1 K813A | 0.98

Now from value to variant:

ratio to parent | Variant
0.62 | chain 1 Y437A
0.5 | chain 1 R750A R752A
